Laboratory results reported in US20260125469A1 (Hoffmann-La Roche, published 2026).

Experiments:
[1] = molecular target: T1, Human CD3ε stalk-Fc(knob)-Avi/CD3δ stalk-Fc(hole) (human); assay: SPR, TCB captured by anti-PG antibody, antigen as analyte, 25°C
T1 construct: Heterodimer of CD3 delta and CD3 epsilon ectodomains fused to human Fc with knob-into-hole; also called human CD3ε/δ; CD3 antigen
Excerpt: (§1) For affinity measurements, TCB molecules were captured on a C1 sensorchip (GE Healthcare) surface with immobilized anti-Fc(P329G) IgG (an antibody that specifically binds human IgG₁ Fc(P329G); “anti-PG antibody”—see WO 2017/072210, incorporated herein by reference). The experimental setup is schematically depicted in FIG. 3. Capture IgG was coupled to the sensorchip surface by direct immobilization of around 400 resonance units (RU) using the standard amine coupling kit (GE Healthcare Life Sciences).
(§2) Kinetic constants were derived using the Biacore T200 Evaluation Software (GE Healthcare Life Sciences), to fit rate equations for 1:1 Langmuir binding by numerical integration. The half-life (t_{1/2}) of the interaction was calculated using the formula t_{1/2}=ln2/koff.
(§3) To analyze the interaction to CD3, TCB molecules were captured for 240 s at 25 nM with a flow rate of 10 μl/min. Human and cynomolgus CD3F stalk-Fc(knob)-Avi/CD36-stalk-Fc(hole) were passed at a concentration of 0.14-100 nM with a flow rate of […] through the flow cells for 240 s. The dissociation was monitored for 800 s.

[2] = molecular target: T2, Cynomolgus CD3ε stalk-Fc(knob)-Avi/CD3δ stalk-Fc(hole) (cynomolgus); assay: as above
T2 construct: also called cynomolgus CD3ε/δ
Excerpt: as §1, §2, §3

[3] = molecular target: T3, human GPRC5D on stably transduced CHO-K1 cells (human, UniProt Q9NZD1 1-345); assay: flow cytometry on CHO-K1 cells stably transduced with human GPRC5D, performed as in Example 11
T3 construct: whole, on cells; also called CHO-hGPRC5D cells
T3 sequence (Q9NZD1 whole entry): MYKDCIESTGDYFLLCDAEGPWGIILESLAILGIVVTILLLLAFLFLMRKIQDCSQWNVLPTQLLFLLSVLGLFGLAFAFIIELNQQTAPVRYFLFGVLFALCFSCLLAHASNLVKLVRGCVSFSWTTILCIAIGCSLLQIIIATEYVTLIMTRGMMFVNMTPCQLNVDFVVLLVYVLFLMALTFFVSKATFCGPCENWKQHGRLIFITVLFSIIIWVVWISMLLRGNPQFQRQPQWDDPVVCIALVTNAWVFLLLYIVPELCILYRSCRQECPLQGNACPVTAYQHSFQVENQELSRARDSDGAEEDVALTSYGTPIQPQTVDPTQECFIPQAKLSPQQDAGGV
Description: The binding of the CEACAM5-TCB molecules prepared in Example 7 was tested on CEACAM5 (CEA)-positive tumor cells (LS-180 cells, ECACC #87021202) and CD3-expressing immortalized T lymphocyte cells (GloResponse Jurkat NFAT-RE-luc2P; Promega, #CS176501). Briefly, adherent LS-180 cells were detached, using Cell Dissociation Buffer (Gibco), counted, checked for viability and re-suspended at 2 million cells per ml in FACS buffer (PBS with 0.1% BSA). Likewise, Jurkat suspension cells were harvested and plated for subsequent stainings. 100 μl of the cell suspension (containing 0.2 million cells) were incubated in round-bottom 96-well plates for 30 min at 4° C. with increasing concentrations of the CEACAM5-TCB molecules (4 pM-300 nM). Cells were washed twice with cold PBS 0.1% BSA (FACS buffer), re-incubated for further 30 min at 4° C. with the Alexa Fluor 647-conjugated AffiniPure F(ab′)2 Fragment Goat Anti-Human IgG, Fcγ Fragment Specific Antibody (Jackson Immuno Research Lab #109-606-008, diluted 1:50 in FACS buffer) and washed twice with cold PBS 0.1% BSA thereafter. The staining was fixed for 20 min at 4° C. in the dark, using 150 μl of 2% PFA in FACS buffer per well. Fluorescence was analyzed by FACS using a FACS Fortessa (Software FACS Diva). Binding curves were obtained using GraphPadPrism6.
The binding of the GPRC5D-TCB molecules prepared in Example 7 was tested using CHO-transfectants stably transduced to express human GPRC5D (CHO-K1, ATCC) and CD3-expressing immortalized T lymphocyte cells (GloResponse Jurkat NFAT-RE-luc2P; Promega, #CS176501). The experiment was performed as described in Example 11.

[4] = molecular target: T1, Human CD3ε stalk-Fc(knob)-Avi/CD3δ …; assay: SPR on immobilized human CD3ε/δ after stress, relative to sample kept at -80°C pH 6
Description: In order to assess the effect of the deamidation site removal and its effect on the stability of the antibodies, the optimized anti-CD3 antibodies (in TCB format) were incubated for 14 days at 37° C., pH 7.4 and at 40° C., pH 6 and further analyzed by SPR for their binding capability to human CD3ε/δ. Samples stored at −80° C. pH 6 were used as reference. The reference samples and the samples stressed at 40° C. were in 20 mM His, 140 mM NaCl, pH 6.0, and the samples stressed at 37° C. in PBS, pH 7.4, all at a concentration of 1.0 mg/ml. After the stress period (14 days) samples in PBS were dialyzed back to 20 mM His, 140 mM NaCl, pH 6.0 for further analysis.
All SPR experiments were performed on a Biacore T200 instrument (GE Healthcare) at 25° C. with HBS-P+ (10 mM HEPES, 150 mM NaCl pH 7.4, 0.05% Surfactant P20) as running and dilution buffer. Biotinylated human CD3ε/δ (see Example 3, SEQ ID NOs 41 and 42) as well as biotinylated anti-huIgG (Capture Select, Thermo Scientific, #7103262100) were immobilized on a Series S Sensor Chip SA (GE Healthcare, #29104992), resulting in surface densities of at least 1000 resonance units (RU). Anti-CD3 antibodies with a concentration of 2 μg/ml were injected for 30 s at a flow rate of 5 μl/min, and dissociation was monitored for 120 s. The surface was regenerated by injecting 10 mM glycine pH 1.5 for 60 s. Bulk refractive index differences were corrected by subtracting blank injections and by subtracting the response obtained from a blank control flow cell. For evaluation, the binding response 5 seconds after injection end was taken. To normalize the binding signal, the CD3 binding was divided by the anti-huIgG response (the signal (RU) obtained upon capture of the CD3 antibody on the immobilized anti-huIgG antibody). The relative binding activity was calculated by referencing each temperature stressed sample to the corresponding, non-stressed sample.
The experiment was performed as described in Example 4, using the TCB molecules prepared in Example 7.

[5] = molecular target: human CD3 on cells (CD3ε) (human, UniProt P07766 23-207); assay: cell-based or functional assay
human CD3 on cells (CD3ε), sequence (P07766 23-207 limits assumed): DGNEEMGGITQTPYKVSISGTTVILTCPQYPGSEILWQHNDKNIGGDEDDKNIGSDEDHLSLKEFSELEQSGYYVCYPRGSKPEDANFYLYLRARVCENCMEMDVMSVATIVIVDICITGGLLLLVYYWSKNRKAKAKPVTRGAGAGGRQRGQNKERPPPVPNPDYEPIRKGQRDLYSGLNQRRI

| Binder | Kd [1] | koff [1] | kon [1] | t1/2 [1] | Kd [2] | koff [2] | kon [2] | t1/2 [2] | binding result [3] | binding activity [%] after 2 weeks at pH 6.0/40°C [4] | binding activity [%] after 2 weeks at pH 7.4/37°C [4] | EC50 20 h (pM), T-cell mediated lysis of GPRC5D-expressing NCI-H929 cells [5] |
| --- | --- | --- | --- | --- | --- | --- | --- | --- | --- | --- | --- | --- |
| GPRC5D-TCB, GPRC5D CD3 variant P033.078 (bispecific antibody, human IgG1, kappa, L234A L235A, 2+1 IgG CrossFab, inverted; human IgG1 Fc, knob-into-hole, PGLALA; also called P033.078 in GPRC5D-TCB format) heavy 1: not shown heavy 2: EVQLVESGGGVVQPGRSLRLSCAASGFSFSNYGMAWVRQAPGKGLEWVASISTGGGNTYYRDSVKGRFTISRDNAKNTLYLQMNSLRAEDTAVYYCTRHDRGGLYWGQGTMVTVSSASTKGPSVFPLAPSSKSTSGGTAALGCLVEDYFPEPVTVSWNSGALTSGVHTFPAVLQSSGLYSLSSVVTVPSSSLGTQTYICNVNHKPSNTKVDEKVEPKSCDKTHTCPPCPAPEAAGGPSVFLFPPKPKDTLMISRTPEVTCVVVDVSHEDPEVKFNWYVDGVEVHNAKTKPREEQYNSTYRVVSVLTVLHQDWLNGKEYKCKVSNKALGAPIEKTISKAKGQPREPQVCTLPPSRDELTKNQVSLSCAVKGFYPSDIAVEWESNGQPENNYKTTPPVLDSDGSFFLVSKLTVDKSRWQQGNVFSCSVMHEALHNHYTQKSLSLSP light 1: DIVMTQSPLSLPVTPGEPASISCRSSKSLLHSNGITYVYWYLQKPGQSPQLLIYRMSNRASGVPDRFSGSGSGTDFTLKISRVEAEDVGVYHCGQLLENPYTFGQGTKLEIKRTVAAPSVFIFPPSDRKLKSGTASVVCLLNNFYPREAKVQWKVDNALQSGNSQESVTEQDSKDSTYSLSSTLTLSKADYEKHKVYACEVTHQGLSSPVTKSFNRGEC light 2: EVQLLESGGGLVQPGGSLRLSCAASGFTFESYAMNWVRQAPGKGLEWVSRIRSKYNEYATYYADSVKGRFTISRDDSKNTLYLQMNSLRAEDTAVYYCVRASNFPSSFVSYFGYWGQGTLVTVSSASVAAPSVFIFPPSDEQLKSGTASVVCLLNNFYPREAKVQWKVDNALQSGNSQESVTEQDSKDSTYSLSSTLTLSKADYEKHKVYACEVTHQGLSSPVTKSFNRGEC | 0.547 nM | 0.000948 s⁻¹ | 1.74e+06 M⁻¹ s⁻¹ | 12.2 min | 0.333 nM | 0.000688 s⁻¹ | 2.07e+06 M⁻¹ s⁻¹ | 16.8 min | binds | 99% | 98% | 0.41 pM |
| GPRC5D-TCB, GPRC5D CD3 variant P004.042 (bispecific antibody, human IgG1, kappa, L234A L235A, 2+1 IgG CrossFab, inverted; human IgG1 Fc, knob-into-hole, PGLALA; also called P004.042 in GPRC5D-TCB format) heavy 1: not shown heavy 2: EVQLVESGGGVVQPGRSLRLSCAASGFSFSNYGMAWVRQAPGKGLEWVASISTGGGNTYYRDSVKGRFTISRDNAKNTLYLQMNSLRAEDTAVYYCTRHDRGGLYWGQGTMVTVSSASTKGPSVFPLAPSSKSTSGGTAALGCLVEDYFPEPVTVSWNSGALTSGVHTFPAVLQSSGLYSLSSVVTVPSSSLGTQTYICNVNHKPSNTKVDEKVEPKSCDKTHTCPPCPAPEAAGGPSVFLFPPKPKDTLMISRTPEVTCVVVDVSHEDPEVKFNWYVDGVEVHNAKTKPREEQYNSTYRVVSVLTVLHQDWLNGKEYKCKVSNKALGAPIEKTISKAKGQPREPQVCTLPPSRDELTKNQVSLSCAVKGFYPSDIAVEWESNGQPENNYKTTPPVLDSDGSFFLVSKLTVDKSRWQQGNVFSCSVMHEALHNHYTQKSLSLSP light 1: DIVMTQSPLSLPVTPGEPASISCRSSKSLLHSNGITYVYWYLQKPGQSPQLLIYRMSNRASGVPDRFSGSGSGTDFTLKISRVEAEDVGVYHCGQLLENPYTFGQGTKLEIKRTVAAPSVFIFPPSDRKLKSGTASVVCLLNNFYPREAKVQWKVDNALQSGNSQESVTEQDSKDSTYSLSSTLTLSKADYEKHKVYACEVTHQGLSSPVTKSFNRGEC light 2: EVQLLESGGGLVQPGGSLRLSCAASGFQFDNYAMNWVRQAPGKGLEWVSRIRTKYNEYATYYADSVKGRFTISRDDSKNTLYLQMNSLRAEDTAVYYCVRASNFPQSYVSYFGYWGQGTLVTVSSASVAAPSVFIFPPSDEQLKSGTASVVCLLNNFYPREAKVQWKVDNALQSGNSQESVTEQDSKDSTYSLSSTLTLSKADYEKHKVYACEVTHQGLSSPVTKSFNRGEC | 1.21 nM | 0.00265 s⁻¹ | 2.2e+06 M⁻¹ s⁻¹ | 4.36 min | 0.599 nM | 0.00163 s⁻¹ | 2.72e+06 M⁻¹ s⁻¹ | 7.09 min | binds | 100% | 99% | 0.87 pM |
| GPRC5D-TCB, GPRC5D CD3 variant P035.093 (bispecific antibody, human IgG1, kappa, L234A L235A, 2+1 IgG CrossFab, inverted; human IgG1 Fc, knob-into-hole, PGLALA; also called P035.093 in GPRC5D-TCB format) heavy 1: not shown heavy 2: EVQLVESGGGVVQPGRSLRLSCAASGFSFSNYGMAWVRQAPGKGLEWVASISTGGGNTYYRDSVKGRFTISRDNAKNTLYLQMNSLRAEDTAVYYCTRHDRGGLYWGQGTMVTVSSASTKGPSVFPLAPSSKSTSGGTAALGCLVEDYFPEPVTVSWNSGALTSGVHTFPAVLQSSGLYSLSSVVTVPSSSLGTQTYICNVNHKPSNTKVDEKVEPKSCDKTHTCPPCPAPEAAGGPSVFLFPPKPKDTLMISRTPEVTCVVVDVSHEDPEVKFNWYVDGVEVHNAKTKPREEQYNSTYRVVSVLTVLHQDWLNGKEYKCKVSNKALGAPIEKTISKAKGQPREPQVCTLPPSRDELTKNQVSLSCAVKGFYPSDIAVEWESNGQPENNYKTTPPVLDSDGSFFLVSKLTVDKSRWQQGNVFSCSVMHEALHNHYTQKSLSLSP light 1: DIVMTQSPLSLPVTPGEPASISCRSSKSLLHSNGITYVYWYLQKPGQSPQLLIYRMSNRASGVPDRFSGSGSGTDFTLKISRVEAEDVGVYHCGQLLENPYTFGQGTKLEIKRTVAAPSVFIFPPSDRKLKSGTASVVCLLNNFYPREAKVQWKVDNALQSGNSQESVTEQDSKDSTYSLSSTLTLSKADYEKHKVYACEVTHQGLSSPVTKSFNRGEC light 2: EVQLLESGGGLVQPGGSLRLSCAASGFTFSSYAMNWVRQAPGKGLEWVSRIRSKYNNYATYYADSVKGRFTISRDDSKNTLYLQMNSLRAEDTAVYYCVRASNFPASYVSYFAYWGQGTLVTVSSASVAAPSVFIFPPSDEQLKSGTASVVCLLNNFYPREAKVQWKVDNALQSGNSQESVTEQDSKDSTYSLSSTLTLSKADYEKHKVYACEVTHQGLSSPVTKSFNRGEC | 0.377 nM | 0.0013 s⁻¹ | 3.46e+06 M⁻¹ s⁻¹ | 8.89 min | 0.241 nM | 0.000866 s⁻¹ | 3.61e+06 M⁻¹ s⁻¹ | 13.3 min | binds | 100% | 97% | 0.31 pM |
